Source: the supplement of paper PMC9170038

System: MS2 coat protein
Assay: apparent KD of MS2 coat protein; designed switch direction (-1 OFF switch, 1 ON switch): 1; higher = weaker reporter binding
How it was run: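 SNAP-549-labelled MS2 coat protein was titrated, doubling from 0.7 or 1.5 nM to 3 µM, over designed RNA switches transcribed on Illumina chips by stalled E. coli RNA polymerase. Runs were done without input, with 200 uM small-molecule ligand, or with an oligonucleotide input. Apparent KD is the per-design median over clusters of curve-fitted normalised fluorescence.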

[1] = input ligand: microRNA oligo, concentration not stated
[2] = Eterna round: R95, input ligand: FMN 200 uM
[3] = Eterna round: R95, input ligand: microRNA oligo, concentration not stated
[4] = Eterna round: R95, input ligand: none

Sequence	apparent KD of MS2 coat protein (input ligand: FMN 200 uM) [nM]	apparent KD of MS2 coat protein [1] [nM]	apparent KD of MS2 coat protein (input ligand: none) [nM]	apparent KD of MS2 coat protein [2] [nM]	apparent KD of MS2 coat protein [3] [nM]	apparent KD of MS2 coat protein [4] [nM]
CGACACACGGCAGGAUAUGCUUAGCAAAGCUAAGCAGAAGGGCCUCAUGUCGUGGAAACCUGACAUGAGGAUCACCCAUGUCGG [Omei SS(NG)1 Cv3] (Eterna round: R96, puzzle: Same State NG 1)	23.8	11.6	37.6			
CGACACACGGCAGGAUAUGCUUAGCAAAGCUAAGCAGAAGGGCCUCAUGUCGUGGAAACGUGACAUGAGGAUCACCCAUGUCGC [Omei SS(NG)1 C] (Eterna round: R96, puzzle: Same State NG 1)	31	14.6	19.9			
CGAGAGUGCGUAGGAUAUCCGAAAGGAAGUGUAGGAGAAGGGCGGAACGCUCAUCGAAAACAUGAGGAUCACCCAUGUACAAAU [PowerStrip SSNG 1.17] (Eterna round: R96, puzzle: Same State NG 1)	24.7	62.7	43.9			
CGAGCCGGCACUGAGGAUAUUCAUAUUUAAACAUGAGGAUCACCCAUGUAGGCCAGAAGGCCUUGGGAGAAGGCAGGUCGGCUCC [salish99_ss2_r3_080] (Eterna round: R96, puzzle: Same State 2)	22.3	220	312			
CGAGCCGGCACUGAGGAUAUUCAUAUUUAAACAUGAGGAUCACCCAUGUAGGCCAGAAGGCCUUGGGAGAAGGCAGGUCGGCUCC [salish99_ss2_r3_080] (puzzle: Same State 2)				22.6	279	480
CGAUGUGAGUCAGGAUAUGGGUUAUCACUCCACAUGAGGAUCACCCAUGUAAAGAGGCCAAGGAGCCAGAAGGGACAUACAUCU [Zaorso] (Eterna round: R96, puzzle: Same State NG 2)	1520	14.2	50.8			
CGGCGCUGUCGAGAGGAUAUGCGGUGAUGGACAUGAGGAUCACCCAUGUUAGCGAUAGCAUCACGGUAGAAGGCUCUACGGCUGC [Soteed Omei mod 19] (puzzle: Same State 2)					9.83	
CGGCGCUGUCGAGAGGAUAUGCGGUGAUGGACAUGAGGAUCACCCAUGUUAGCGAUAGCAUUACGGUAGAAGGCUCUACAGUUGC [Soteed Omei mod 8] (puzzle: Same State 2)				19.2	74.9	66.9
CGUAGGAUAUGCAGAGGAUCACCCUGUAGAAGGACGAUUACACAGGAUAUGCAGAGGAUCACCCUGUAGAAGGGUGACUAAUCU [pwkr ssNG3 DX 2xF5 +2xFMN.3] (Eterna round: R96, puzzle: Same State NG 3)	25.8	34.4	55.7			
CGUCCAGCCUGAGCUGGACAAAAGCAUGUACAUGAGGAUCACCCAUGUUCAUGUACAAGCUUUUUGCUCGUCUUAGA [salish99_208a_r3_072] (puzzle: Sensor for hsa-mir-208a)				477	15.3	432
CGUCCAGCCUGAGCUGGACAAAAGCAUGUACAUGAGGAUCACCCAUGUUCAUGUACAAGCUUUUUGCUCGUCUUAGU [salish99_208a_r3_073] (puzzle: Sensor for hsa-mir-208a)				557	14.5	646
CGUCCGGCCUGAGCUGGACGGAUGCAUGUACAUGAGGAUCACCCAUGUUCAUGUGCAGGCUUUUUGCUCGUCUUGUG [salish99_mir208a_modof_jandersonlee_002] (puzzle: Sensor for hsa-mir-208a)				20.1	9.62	18.1
CGUCCGGCCUGUGCUGGCCGGAAGCAUGUACAUGAGGAUCACCCAUGUUCAUGUGCUGGCUUUUUGCUCGUCUUGUG [salish99_mir208a_011] (puzzle: Sensor for hsa-mir-208a)				13.9	11.1	14
CGUCCGGCCUGUGCUGGCCGGUCGCUUGUACAUGAGGAUCACCCAUGUUCUUGUGCUGGCUUUUUGCUCGUCUUGUG [salish99_mir208a_020] (puzzle: Sensor for hsa-mir-208a)				27.1	17.7	31
CGUCCGGCCUGUGCUGGCCGGUGGCUUGUACAUGAGGAUCACCCAUGUUCUUGUGCUGGCUUUUUGCUCGUCGUGUG [salish99_mir208a_r3_023] (puzzle: Sensor for hsa-mir-208a)				32.6	19.8	37.9
CGUCGCUGUCGAGAGGAUAUGCGGUGAUGGACAUGAGGAUCACCCAUGUUAGCGAUAGUAUCACGGUAGAAGGCUCUUACGACUG [Soteed Omei mod 26] (puzzle: Same State 2)					26.7	
CGUCGUUUGAUAGGAUAUCGCUAUACAUGAGGAUCACCCAUGUUUACCACGCUGGUUUUUCAUACCGAGAAGGAUUCUGAUGUU [salish99_SSNG02_r04_016] (Eterna round: R96, puzzle: Same State NG 2)	49.8	42.4	44.1			
CGUCGUUUGAUAGGAUAUCGCUUUACAUGAGGAUCACCCAUGUUUACCUCGCUGGUUUUUCUUUCCGAGAAGGAUUCUGAUGUU [salish99_SSNG02_r04_030] (Eterna round: R96, puzzle: Same State NG 2)	43.4	31.6	40.4			
CGUGAACAUGAGGAUCACCCAUGUGAAAAACGUAGAGGAUAUGUCACAUGAGUGUAAAAGACAGAAGGCUAUCGUG [Mod 2 of Round 1 starryjess' Mod pf Nando] (Eterna round: R96, puzzle: Same State 1)	35.4	172	243			
CGUUCACAUGAGGAUCACCCAUGUCAGAUUUGGUCAGGAUAUGGUCGGCUUCCGCUAUUGCCAGAAGGGACUGUUG [JR_SS001_Sub705] (Eterna round: R96, puzzle: Same State 1)	24.3	28.8	35.2			
CUACAGGCCAGAGGAUAUGGGAAAGGAAGUGUACCAGAAGGUUGGCCUCCUGAGUACAUGAGGAUCACCCAUGUAGAAAGGCGA [PowerStrip SSNG 1.6] (Eterna round: R96, puzzle: Same State NG 1)	143	41.6	79.9			
CUACGCGCCGCAGGAUAUGCCGACCCGUGUUGAGCAGAAGGGCGAAACAUGAGGAUCACCCAUGUUGAAAGAGCGCAAAAUUAA [Erteerte] (Eterna round: R96, puzzle: Same State NG 1)	23.5	16.4	30.1			
CUCAAAACAAGUUGCAGUGUUCGUCUUUAACAUGAGGAUCACCCAUGUAAUAACCCAGUGGAAGCGCUCGGGCCACC [Ineson] (puzzle: Sensor for hsa-mir-208a)				30.2		28.5
